To fix the notation:
B1: 172E3E3 (antibody, V domains shown)
VH: QVQLQESGPGLVKPSGTLSLTCAVSGGSISSSNWWSWVRQPPGKGLEWIGEIYHSGSTNYNPSLKSRVTISVDKSKNQLSLNLSSVTAADTAVYYCARQGGVAGTLYWYFDLWGRGTLVTVSS
VL: DIVMTQSPLSLPVTPGEPASISCRSSQGLLHSNGYNYLDWYLQKPGQSPQLLIYLGSNRASGVPDRFIGSGSGTDFTLKIRRVEAEDVGVYYCMQVLQTPWTFGQGTKVEIK
B2: 11H10C9 (antibody, V domains shown)
VH: QVQLVESGGGVVQPGRSLRLSCAASGFTFSSYAMHWVRQAPGKGLEWVAIIWYDGSNQYYADSVKGRFTISRDNSMNTLYLQMNSLRAEDTAVYYCARVEQWLVSYFDFWGQGTLVTVSS
VL: EIVMTQSPATLSVSPGERATLSCRASQSVSSNLAWYQQKPGQVPRLLIYGASTRATGIPARFSGSGSGTEFTLTISSLQSEDFAVYYCQQYNNWPTFGGGTKVEIK
B3: 15G10D4 (antibody, V domains shown)
VH: B2 VH with T28S, M76K, E100K, F109Y
VL: B2 VL with T72S, T74I
B4: 119B6G5 (antibody, V domains shown)
VH: EVQLLESGGGLVQPGGSLRLSCAASGFTFSNYAMSWVRQGPGKGLEWVSTIIGSGDSTYYTDSVKGRFTISRDNSKNTLFLQMNSLRAEDTAVYYCARDKSGWYYFDYWGQGTLVTVSS
VL: DIQMTQSPSTLSASVGDRVTITCRASQSISNWLAWYQQKPGKAPKLLIYKASSLESGVPSRFSGSGSGTEFTLTISSLQPDDFATYYCQQYNDYFPITFGQGTRLEIK
B5: 113F6C6 (antibody, V domains shown)
VH: QVQLVESGGGVVQPGRSLRLSCAASGLTFSSYGMHWVRQAPGKGLEWVAVIWYDGSNKYYADSVKGRFTISRDNSKNTLYLQMNSLRAEDTAVYYCAREEVLWFGELSYNYYYGMDVWGQGTTVTVSS
VL: DIQMTQSPSSLSASVGDRVTITCRASQGISNYLAWYQQKPGKVPKLLIYAASTLQSGVPSRFSGSGSGTDFTLTISSLQPEDVATYYCQKYNSVPLTFGGGTKVEIK
notes: also called 4-1BB fully human antibody 113F6C6; 113F6F6
B6: 57B3D10 (antibody, V domains shown)
VH: QVQLQESGPGLVKPSETLSLTCTVSGGSISSYYWSWIRQPPGKGLEWIGYIYYSGSTNYNPSLKSRVTISVDTSKSQFSLKLTSVTAADTAVYYCAKDSDYYGSGSYSYWYFDLWGRGTLVTVSS
VL: EIVMTQSPATLSVSPGERATLSCRASQSVSSNLAWYQQKPGQAPRLLIYGASTRAPGIPARFSGSGSGTEFTLTISSLQSEDFAVYYCQQYNNWPLTFGGGTKVEIK
notes: also called 4-1BB fully human antibody 57B3D10

By EC50 (read off the curve) is commonly meant the concentration at which the effect is half-maximal.

Changes are numbered by the printed parent chain.

In one assay the target is T1, human 4-1BB, full length, on transfected cells (human, UniProt Q07011 24-255).
T1 construct: whole, on cells; also called CHOK1-h4-1BB
T1 sequence (Q07011 24-255): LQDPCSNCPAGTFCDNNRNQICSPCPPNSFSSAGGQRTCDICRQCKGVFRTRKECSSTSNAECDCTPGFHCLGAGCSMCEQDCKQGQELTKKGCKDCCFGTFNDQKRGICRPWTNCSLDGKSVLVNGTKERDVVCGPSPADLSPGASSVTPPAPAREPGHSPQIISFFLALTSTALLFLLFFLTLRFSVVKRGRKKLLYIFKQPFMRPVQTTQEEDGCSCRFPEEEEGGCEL
Nature of the assay: FACS, CHOK1-h4-1BB cells; Ab 10 ug/ml. An excerpt:
(§1) The pIRES plasmid carrying the full-length gene of monkey-derived […] (the preparation method is the same as the preparation method of the pCpC vector carrying the human-derived IgG Fc fragment (hFc) in “Preparation of immunogen A” of the step (1) in Example 1, in which the database accession number of the amino acid sequence of the extracellular region of monkey 4-1BB protein (Phe19-Thr239) is G7PSE7) was transfected into CHOK1 cell line to obtain CHOK1 stable transfected cell line containing monkey 4-1BB (herein referred to as CHOK1-c4-1BB stable cell line). The CHOK1-h4-1BB stable cell line and the CHOK1-c4-1BB stable cell line were expanded and cultivated to 90% confluence in T-75 cell culture flasks. The medium was exhausted, and washed twice with HBSS buffer (Hanks Balanced Salt Solution, purchased from Invitrogen), and then the cells were treated and collected with enzyme-free cell dissociation solution (Versene solution, purchased from Life Technology). The cells were washed twice with HBSS buffer, and after cell counting, the cells were diluted with HBSS buffer to 2×10⁶ cells per ml, and 1% goat serum blocking solution was added, the percentage being the mass percentage. It was incubated on ice for 30 minutes, and then washed twice with HBSS buffer by centrifugation. The collected cells were suspended in FACS buffer (HBSS containing 1% BSA, the percentage was the mass percentage) to 2×10⁶ cells/mL, and 100 μl per well was added to a 96-well FACS reaction plate. The purified 4-1BB antibody test sample obtained in Example 2 was added, 100 microliters per well and incubated on ice for 2 hours. […] It was washed three times with FACS buffer by centrifugation, and 100 μl of fixative [4% (v/v) paraformaldehyde] per well was added to suspend cells, and washed twice with FACS buffer after 10 minutes by centrifugation. The cells were suspended with 100 microliters of FACS buffer, and the results were detected and analyzed with FACS (FACS Calibur, purchased from BD).
In the case of B1, the average fluorescence intensity stood at 489 MFI.

Consider B2, for which the average fluorescence intensity is 498 MFI.

In the case of B3, the average fluorescence intensity came to 532 MFI.

On to B4, for which the average fluorescence intensity came out at 1080 MFI.

B5 had an average fluorescence intensity of 405 MFI.

B6 displayed an average fluorescence intensity of 538 MFI.

The target of the next assay is T2, monkey 4-1BB on CHOK1 cells (monkey).
T2 construct: whole, on cells; also called CHOK1-c4-1BB
Nature of the assay: FACS, CHOK1-c4-1BB cells; Ab 0.4 ug/ml.
Description: as §1
In general terms: A flow cytometer gives signals particle by particle.
Regarding B1, the average fluorescence intensity amounted to 159 MFI.

The molecule B2 returned an average fluorescence intensity of 298 MFI.

B3 registered an average fluorescence intensity of 359 MFI.

As to B4, the average fluorescence intensity is 944 MFI.

B5 yielded an average fluorescence intensity of 357 MFI.

B6 gave an average fluorescence intensity of 549 MFI.

Another assay deals with T1, human 4-1BB, full length, on …. Nature of the assay: FACS, CHOK1-h4-1BB cells; Ab 0.08 ug/ml.
Description: as §1
B1 gave an average fluorescence intensity of 172 MFI.

Molecule B2 registered an average fluorescence intensity of 200 MFI.

Turning to B3, the average fluorescence intensity was found to be 322 MFI.

In turn, B4 returned an average fluorescence intensity of 199 MFI.

As to B5, the average fluorescence intensity came to 154 MFI.

Regarding B6, the average fluorescence intensity amounted to 389 MFI.

Another assay concerns the target T2, monkey 4-1BB on CHOK1 cells. Nature of the assay: FACS, CHOK1-c4-1BB cells; Ab 0.08 ug/ml.
Description: as §1
Molecule B1 yielded an average fluorescence intensity of 47 MFI.

Regarding B2, the average fluorescence intensity was 82.6 MFI.

For the molecule B3, the average fluorescence intensity came to 156 MFI.

Turning to B4, the average fluorescence intensity is 303 MFI.

B5 came in with an average fluorescence intensity of 182 MFI.

B6 displayed an average fluorescence intensity of 166 MFI.

A further assay shares this target. Put plainly: FACS, CHOK1-c4-1BB cells; Ab 0.016 ug/ml.
Description: as §1
The molecule B1 registered an average fluorescence intensity of 16.7 MFI.

For B2, the average fluorescence intensity amounted to 24.7 MFI.

B3 registered an average fluorescence intensity of 37.3 MFI.

In turn, B4 displayed an average fluorescence intensity of 77.9 MFI.

For B5, the average fluorescence intensity turned out to be 51.5 MFI.

Molecule B6 displayed an average fluorescence intensity of 63.5 MFI.

Another assay shares this target. Put plainly: FACS, CHOK1-c4-1BB cells; Ab 0.0032 ug/ml.
Description: as §1
B1: the average fluorescence intensity came out at 6.6 MFI.

For the molecule B2, the average fluorescence intensity is 10.4 MFI.

B3 registered an average fluorescence intensity of 12 MFI.

The molecule B4 registered an average fluorescence intensity of 20.7 MFI.

B5 came in with an average fluorescence intensity of 15.1 MFI.

Regarding B6, the average fluorescence intensity came out at 15 MFI.

Another assay concerns the target T3, hFc-tagged human 4-1BB extracellular domain protein (4-1BB-hFc) (human, UniProt Q07011 24-186, limits assumed).
T3 construct: also called immunogen A; 4-1BB^ECD-hFc; not shown: human IgG Fc fragment (hFc) of the pCpC vector
Put plainly: ELISA, coated human 4-1BB-hFc; Ab 10 ug/ml. Here is the method: (§2) The purified immunogen A (4-1BB-hFc), monkey 4-1BB-his, and mouse 4-1BB-his obtained in Example 1 [for the preparation method, see step 1 of Example 1, preparation of immunogen A], of which the extracellular domain of monkey-derived 4-1BB protein (purchased from ACRO biosystems), the extracellular domain of mouse 4-1BB protein (purchased from sino biological) or other immune detection point proteins respectively were diluted with PBS to a final concentration of 1.0 μg/mL, then added with […] per well to 96-well ELISA plate. It was sealed with plastic film and incubated at 4° C. overnight. The next day, the plate was washed twice with the plate-washing solution [PBS containing 0.01% (v/v) Tween20] and blocking solution [PBS containing 0.01% (v/v) Tween 20 and 1% (v/v) BSA] was added and blocked at room temperature for 2 hours. The blocking solution was discarded and 100 μl of the purified 4-1BB antibody obtained in Example 2 was added per well. After incubated at 37° C. for 2 hours, the plate was washed 3 times with a plate-washing solution [PBS containing 0.01% (v/v) Tween20]. A secondary antibody (purchased from Sigma) labeled with HRP (horseradish peroxidase) was added, and after incubated at 37° C. for 2 hours, the plate was washed 3 times with a plate-washing solution [PBS containing 0.01% (v/v) Tween20]. 100 μl of TMB substrate was added per well. After incubated for 30 minutes at room temperature, 100 μl of stop buffer (1.0N HCl) was added per well. The A450 nm values were read using an ELISA plate reader (SpectraMax 384plus, Molecular Device).
Background: An ELISA detects its analyte on a solid surface through an enzyme-linked reagent.
As to B1, the OD450 nm was 3.43 OD450 nm.

B2 registered an OD450 nm of 3.55 OD450 nm.

The molecule B3 yielded an OD450 nm of 3.53 OD450 nm.

Consider B4, for which the OD450 nm stood at 2.78 OD450 nm.

The next assay addresses T1, human 4-1BB, full length, on …. Nature of the assay: FACS, CHOK1-h4-1BB cells; Ab 0.00064 ug/ml.
Description: as §1
B1 returned an average fluorescence intensity of 49.5 MFI.

Molecule B2 showed an average fluorescence intensity of 6.4 MFI.

Consider B3, for which the average fluorescence intensity worked out at 9.3 MFI.

Molecule B4 registered an average fluorescence intensity of 5.1 MFI.

In turn, B5 returned an average fluorescence intensity of 4.8 MFI.

Consider B6, for which the average fluorescence intensity was 12.5 MFI.

The next assay concerns the target T3, hFc-tagged human 4-1BB extracellular …. Nature of the assay: ELISA, coated human 4-1BB-hFc; Ab 0.4 ug/ml. Here is the method:
as §2
In turn, B1 showed an OD450 nm of 3.44 OD450 nm.

Consider B2, for which the OD450 nm is 3.58 OD450 nm.

As for B3, the OD450 nm is 3.55 OD450 nm.

B4 yielded an OD450 nm of 2.77 OD450 nm.

For another assay the target is unchanged. Nature of the assay: ELISA, coated human 4-1BB-hFc; Ab 0.016 ug/ml. The method, then:
as §2
In turn, B1 returned an OD450 nm of 1.65 OD450 nm.

As for B2, the OD450 nm amounted to 1.55 OD450 nm.

B3: the OD450 nm came out at 1.72 OD450 nm.

B4 returned an OD450 nm of 1.25 OD450 nm.

In the next assay the target is T4, monkey 4-1BB-his protein (monkey).
T4 construct: extracellular domain; Bought protein; also called extracellular domain of monkey-derived 4-1BB protein
Nature of the assay: ELISA, coated monkey 4-1BB-his; Ab 0.08 ug/ml. The method, then: as §2
Turning to B4, the OD450 nm is 2.15 OD450 nm.

In turn, B5 returned an OD450 nm of 1.58 OD450 nm.

On to B6, for which the OD450 nm was 2.03 OD450 nm.

In a further assay the target is T3, hFc-tagged human 4-1BB extracellular …. Nature of the assay: ELISA, coated human 4-1BB-hFc; Ab 0.0006 ug/ml. The method, then: as §2
The molecule B1 came in with an OD450 nm of 0.2 OD450 nm.

The molecule B2 showed an OD450 nm of 0.19 OD450 nm.

For the molecule B3, the OD450 nm was 0.19 OD450 nm.

Regarding B4, the OD450 nm turned out to be 0.11 OD450 nm.

In a further assay the target is T4, monkey 4-1BB-his protein. Put plainly: ELISA, coated monkey 4-1BB-his; Ab 0.016 ug/ml. The method, then:
as §2
As to B4, the OD450 nm came to 0.77 OD450 nm.

Consider B5, for which the OD450 nm was determined as 0.47 OD450 nm.

The molecule B6 came in with an OD450 nm of 0.81 OD450 nm.

A further assay deals with T4, monkey 4-1BB-his protein. Put plainly: ELISA, coated monkey 4-1BB-his; Ab 0.0032 ug/ml. Here is the method:
as §2
On to B4, for which the OD450 nm was determined as 0.24 OD450 nm.

For B5, the OD450 nm turned out to be 0.14 OD450 nm.

B6 came in with an OD450 nm of 0.25 OD450 nm.

In another assay the target is T3, hFc-tagged human 4-1BB extracellular …. Nature of the assay: ELISA: human 4-1BB-hFc coated at 1.0 µg/mL, antibody titrated, HRP secondary antibody, OD450. Here is the method:
as §2
Take B1: the “EC50 (read off the curve)” value was roughly 0.02 µg/mL.

Consider B2, for which the “EC50 (read off the curve)” value was roughly 0.02 µg/mL.

As for B3, the “EC50 (read off the curve)” value was roughly 0.02 µg/mL.

In the case of B4, the “EC50 (read off the curve)” value was roughly 0.02 µg/mL.

Consider B5, for which the “EC50 (read off the curve)” value was roughly 0.02 µg/mL.

For B6, the “EC50 (read off the curve)” value is roughly 0.02 µg/mL.

These data come from US20200347144A1 (SHANGHAI HYAMAB BIOTECH, published 2020).
